Measurements published in PMC8185552.

Biological target: murine tenascin-C (murine) (UniProt Q80YX1)
Test: negative staining transmission electron microscopy; murine TNC with CXCL12 labeled with colloidal gold; gold particles counted along the length of the TNC monomer, 500 TNC molecules

murine tenascin-C, Q80YX1 23-2110
stoichiometry N: 6
